The source of these data is patent publication US20250277030A1, “ANTI-NAPI2B ANTIBODIES AND METHODS OF USE” (Zymeworks BC Inc., priority 2022, published 2025).

One experiment concerns the target T1, mouse NaPi2b (Mus musculus, UniProt Q9DBP0).
T1 construct: expressed in transfected cells; host or cells: HEK293-6e
T1 sequence (Q9DBP0 1-697): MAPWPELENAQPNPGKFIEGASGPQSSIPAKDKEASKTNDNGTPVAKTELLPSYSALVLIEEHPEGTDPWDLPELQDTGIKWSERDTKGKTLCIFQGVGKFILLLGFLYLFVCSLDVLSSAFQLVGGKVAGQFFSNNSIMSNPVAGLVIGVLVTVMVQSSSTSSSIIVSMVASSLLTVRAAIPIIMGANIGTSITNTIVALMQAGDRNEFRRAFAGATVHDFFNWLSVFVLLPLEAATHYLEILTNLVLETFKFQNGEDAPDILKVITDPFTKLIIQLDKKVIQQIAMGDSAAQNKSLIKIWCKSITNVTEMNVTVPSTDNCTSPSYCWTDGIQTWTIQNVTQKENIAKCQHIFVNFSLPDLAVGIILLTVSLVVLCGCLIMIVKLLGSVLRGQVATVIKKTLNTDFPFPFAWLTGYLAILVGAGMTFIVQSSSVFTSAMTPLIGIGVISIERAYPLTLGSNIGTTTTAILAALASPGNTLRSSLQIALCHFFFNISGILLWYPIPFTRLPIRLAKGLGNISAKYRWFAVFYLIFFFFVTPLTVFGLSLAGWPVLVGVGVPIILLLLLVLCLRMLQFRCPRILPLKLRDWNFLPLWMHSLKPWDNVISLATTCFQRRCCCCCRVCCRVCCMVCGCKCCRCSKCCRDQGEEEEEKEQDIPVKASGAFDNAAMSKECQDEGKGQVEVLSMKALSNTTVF
The experiment in a line: Flow cytometry binding to HEK293-6e cells transfected with mouse NaPi2b (Example 5). To be noted: transfected HEK293-6e cells, 18-24 hours at 4° C. The method, then: The binding cross-reactivity of humanized antibody variant v29456 to human, cynomolgus and mouse NaPi2b was assessed by flow cytometry using HEK293-6e transfected cells.
Briefly, HEK293-6e cells were transfected for ˜24 hours to transiently express human NaPi2b, cynomolgus or mouse NaPi2b, at 1 μg of DNA per 1 million cells. Following transfection, 50,000 cells per well were seeded in V-bottom 96-well plates and incubated with 200 nM of primary antibody for 18-24 hours at 4° C. to prevent internalization. Post-incubation, cells were washed and stained with anti-Human IgG Fc AF647 conjugate (Jackson Immuno Research Labs, West Grove, PA, Cat. No. 109-605-098, Lot. No. 124868) at 4° C. for 1 hour. Following staining and washing, fluorescence was detected by flow cytometry on BD LSRFortessa™ Cell Analyzer (BD Biosciences, Franklin Lake, NJ) with 10,000 minimum events collected per well. The AF647/APC-A GeoMean (fluorescence signal geometric mean, proportional to anti-Human AF647 binding) was calculated for the live singlet cell population for each primary antibody using FlowJo™ v8 software (BD Biosciences, Franklin Lake, NJ). The Bmax and Kd of each primary antibody were calculated using GraphPad Prism Version 9 (GraphPad Software, San Diego, CA)

The subject of another experiment is ssDNA. The experiment can be described thus: NS-ELISA non-specific binding, ssDNA. As to conditions: mAb at 100 nM. As to the method:
The isoelectric point was measured by capillary isoelectric focusing (cIEF), the propensity for self-aggregation was measured by Affinity-capture self-interaction nanoparticle spectroscopy (AC-SINS) and non-specific binding was measured by NS-ELISA, as described below.
NS-ELISA was used to measure the propensity of the antibodies to bind to a range of biomolecules to emulate the undesirable non-specific interactions to biological matrices in vivo as described below.
NS-ELISA was carried out in Corning®96-well EIA/RIA Easy Wash™ Clear Flat Bottom Polystyrene High Bind Microplate coated overnight at 4° C. with 50 μL of Heparin (Sigma, H3149) diluted with 50 mM sodium carbonate pH 9.6 to a final concentration of 250 μg/mL. The plate was incubated for 2 days at room temperature, wells that were coated with heparin were not covered to allow air dry. […] Reactions were stopped after approximately 10 minutes by adding 100 μL of 1 M HCl to each well, and absorbance was read at 450 nm. Binding scores were calculated as the ratio of the ELISA signal of the antibody (antibody-treated) to the signal of a well containing buffer instead of the primary antibody (untreated). The cutoffs considered for each binding molecule (ssDNA, KLH, insulin, dsDNA and heparin) were internally calculated, based on the average of Zymeworks Inc. produced antibodies and antibodies benchmarks published in the literature.

B1: v29456: humanized anti-NaPi2b IgG1/kappa antibody H1L2; VH SEQ ID NO:24, VL SEQ ID NO:29 (antibody, V domains shown)
VH: QVQLVQSGAEVKKPGASVKVSCKASGFTFTSYNVHWVRQAPGQGLEWMGAISPGNGDLSYAQKFQGRVTMTRDTSTSTVYMELSSLRSEDTAVYYCARGRTGMGAVDYWGQGTLVTVSS
VL: DVQMTQSPSSLSASVGDRVTITCRASQDVYSYLNWYQQKPGKAVKLLIYYTSRLQSGVPSRFSGSGSGTDYTLTISSLQPEDFATYYCQQYNIFPWTFGQGTKLEIK
modifications: v29452, v29456, v29460 VH (H1); v29453, v29454, v29455, v29456 VL (L2)
Regarding B1, in the experiment with mouse NaPi2b, the “Bmax (APC-A GeoMean), Ms NaPi2b” value is on record as 2,062 APC-A GeoMean. Further, the Kd with mouse NaPi2b (highest antibody concentration 200 nM, read-out: Apparent Kd (nM), Ms NaPi2b) amounted to 10.6 nM. The “NS-ELISA binding score (ratio of signal between antibody-treated and untreated), ssDNA” value with ssDNA was 1.06.
